This note sets out measurements from US20100092982A1 (University of California, published 2010).

To fix the notation:
T1: CARM1 fused to Gal4AD (pGAD10.CARM1) (mouse, UniProt Q4AE70 3-651 (rat entry))
T1 construct: Yeast two-hybrid prey; also called CARM1-AD hybrid protein; CARM1(3-608)
T1 sequence: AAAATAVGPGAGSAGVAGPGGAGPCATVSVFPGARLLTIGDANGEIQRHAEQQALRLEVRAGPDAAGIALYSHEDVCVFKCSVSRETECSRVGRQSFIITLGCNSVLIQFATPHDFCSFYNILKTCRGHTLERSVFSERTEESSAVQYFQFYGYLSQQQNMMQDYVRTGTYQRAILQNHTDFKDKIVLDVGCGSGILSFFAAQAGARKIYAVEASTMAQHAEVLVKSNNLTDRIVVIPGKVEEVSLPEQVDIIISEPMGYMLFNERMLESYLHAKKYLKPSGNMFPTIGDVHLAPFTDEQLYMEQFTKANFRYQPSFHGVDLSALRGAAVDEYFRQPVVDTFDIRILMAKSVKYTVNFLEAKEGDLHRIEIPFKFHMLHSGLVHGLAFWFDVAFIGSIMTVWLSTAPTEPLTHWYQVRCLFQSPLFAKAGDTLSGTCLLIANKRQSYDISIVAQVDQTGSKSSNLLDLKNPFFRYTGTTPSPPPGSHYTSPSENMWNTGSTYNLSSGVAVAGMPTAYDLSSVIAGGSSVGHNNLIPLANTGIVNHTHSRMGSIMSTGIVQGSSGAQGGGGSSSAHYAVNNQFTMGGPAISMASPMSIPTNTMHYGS

B1: GST-CARM1 (enzyme)
chain: T1 sequence
notes: also called GST fusion protein of CARM1; glutathione S-transferase-CARM1; not shown: glutathione S-transferase (GST) as encoded by vector pGEX-4T1 (Pharmacia)
B2: Gal4 DBD-GRIP1c N-terminal fragment ending at amino acid 1305 (GRIP1c bisected between 1305 and 1306) (other, UniProt P04386 1-147, looked up)
chain: MKLLSSIEQACDICRLKKLKCSKEKPKCAKCLKNNWECRYSPKTKRSPLTRAHLTEVESRLERLEQLFLLIFPREDLDMILKMDSLQDIKALLTGLFVQDNVNKDAVTDRLASVETDMPLTLRQHRISATSSSEESSNKGQRQLTVSSSIMLEQKPPVFPQQYASQAQMAQGGYNPMQDPNFHTMGQRPNYTTLRMQPRPGLRPTGIVQNQPNQLRLQLQHRLQAQQNRQPLMNQISSVSNVNLTLRPGVPTQAPINAQMLAQRQREILNQHLRQRQMQQQVQQRTLMMRGQGLNVTPSMVAPAGLPAAMSNPRIPQANAQQFPFPPNYGI
B3: Gal4 DBD-GRIP1c C-terminal fragment starting at amino acid 1306 (GRIP1c bisected between 1305 and 1306) (other, UniProt P04386 1-147, looked up)
chain: MKLLSSIEQACDICRLKKLKCSKEKPKCAKCLKNNWECRYSPKTKRSPLTRAHLTEVESRLERLEQLFLLIFPREDLDMILKMDSLQDIKALLTGLFVQDNVNKDAVTDRLASVETDMPLTLRQHRISATSSSEESSNKGQRQLTVSSQQPDPGFTGATTPQSPLMSPRMAHTQSPMMQQSQANPAYQPTSDMNGWAQGSMGGNSMFSQQSPPHFGQQANTSMYSNNMNISVSMATNTGGLSSMNQMTGQMSMTSVTSVPTSGLPSMGPEQVNDPALRGGNLFPNQLPGMDMIKQEGDASRKYC
B4: Gal4 DBD-GRIP1 fragment 1211-1350 (other, UniProt P04386 1-147, looked up)
chain: MKLLSSIEQACDICRLKKLKCSKEKPKCAKCLKNNWECRYSPKTKRSPLTRAHLTEVESRLERLEQLFLLIFPREDLDMILKMDSLQDIKALLTGLFVQDNVNKDAVTDRLASVETDMPLTLRQHRISATSSSEESSNKGQRQLTVSSSVSNVNLTLRPGVPTQAPINAQMLAQRQREILNQHLRQRQMQQQVQQRTLMMRGQGLNVTPSMVAPAGLPAAMSNPRIPQANAQQFPFPPNYGISQQPDPGFTGATTPQSPLMSPRMAHTQSPMMQQSQANPAYQPTSD
B5: Gal4 DBD-GRIP1c (GRIP1 1122-1462) (other, UniProt P04386 1-147, looked up)
chain: MKLLSSIEQACDICRLKKLKCSKEKPKCAKCLKNNWECRYSPKTKRSPLTRAHLTEVESRLERLEQLFLLIFPREDLDMILKMDSLQDIKALLTGLFVQDNVNKDAVTDRLASVETDMPLTLRQHRISATSSSEESSNKGQRQLTVSSSIMLEQKPPVFPQQYASQAQMAQGGYNPMQDPNFHTMGQRPNYTTLRMQPRPGLRPTGIVQNQPNQLRLQLQHRLQAQQNRQPLMNQISSVSNVNLTLRPGVPTQAPINAQMLAQRQREILNQHLRQRQMQQQVQQRTLMMRGQGLNVTPSMVAPAGLPAAMSNPRIPQANAQQFPFPPNYGISQQPDPGFTGATTPQSPLMSPRMAHTQSPMMQQSQANPAYQPTSDMNGWAQGSMGGNSMFSQQSPPHFGQQANTSMYSNNMNISVSMATNTGGLSSMNQMTGQMSMTSVTSVPTSGLPSMGPEQVNDPALRGGNLFPNQLPGMDMIKQEGDASRKYC
notes: One entry covers both the yeast bait (pGBT9) and the mammalian vector (pM) fusion; also called pGBT9.GRIP1c; pM.GRIP1c
B6: GRIP1 amino acids 730-1121, translated in vitro (other, UniProt Q61026 730-1121, looked up)
chain: VKQEPASPKKKENALLRYLLDKDDTKDIGLPEITPKLERLDSKTDPASNTKLIAMKTVKEEVSFEPSDQPGSELDNLEEILDDLQNSQLPQLFPDTRPGAPTGSVDKQAIINDLMQLTADSSPVPPAGAQKAALRMSQSTFNNPRPGQLGRLLPNQNLPLDITLQSPTGAGPFPPIRNSSPYSVIPQPGMMGNQGMLGSQGNLGNNSTGMIGSSTSRPSMPSGEWAPQSPAVRVTCAATTGAMNRPVQGGMIRNPTASIPMRANSQPGQRQMLQSQVMNIGPSELEMNMGGPQYNQQQAPPNQTAPWPESILPIDQASFASQNRQPFGSSPDDLLCPHPAAESPSDEGALLDQLYLALRNFDGLEEIDRALGIPELVSQSQAVDAEQFSSQE
notes: range 730-1121; also called GRIP1 (730-1121); not shown: translation start and HA tag encoded by pSG5.HA
B7: Gal4 DBD-GRIP1 amino acids 1121-1210 (N-terminal fragment of GRIP1c bisected between 1210 and 1211) (other, UniProt P04386 1-147, looked up)
chain: MKLLSSIEQACDICRLKKLKCSKEKPKCAKCLKNNWECRYSPKTKRSPLTRAHLTEVESRLERLEQLFLLIFPREDLDMILKMDSLQDIKALLTGLFVQDNVNKDAVTDRLASVETDMPLTLRQHRISATSSSEESSNKGQRQLTVSESSIMLEQKPPVFPQQYASQAQMAQGGYNPMQDPNFHTMGQRPNYTTLRMQPRPGLRPTGIVQNQPNQLRLQLQHRLQAQQNRQPLMNQI
notes: also called the N-terminal fragment
B8: Gal4 DBD-GRIP1 1211-1462 (C-terminal fragment of GRIP1c bisected between 1210 and 1211) (other, UniProt P04386 1-147, looked up)
chain: MKLLSSIEQACDICRLKKLKCSKEKPKCAKCLKNNWECRYSPKTKRSPLTRAHLTEVESRLERLEQLFLLIFPREDLDMILKMDSLQDIKALLTGLFVQDNVNKDAVTDRLASVETDMPLTLRQHRISATSSSEESSNKGQRQLTVSSSVSNVNLTLRPGVPTQAPINAQMLAQRQREILNQHLRQRQMQQQVQQRTLMMRGQGLNVTPSMVAPAGLPAAMSNPRIPQANAQQFPFPPNYGISQQPDPGFTGATTPQSPLMSPRMAHTQSPMMQQSQANPAYQPTSDMNGWAQGSMGGNSMFSQQSPPHFGQQANTSMYSNNMNISVSMATNTGGLSSMNQMTGQMSMTSVTSVPTSGLPSMGPEQVNDPALRGGNLFPNQLPGMDMIKQEGDASRKYC
notes: also called the C-terminal fragment

Test [1] concerns the target T2, GRIP1 amino acids 5-765, translated in vitro (UniProt Q61026 5-765).
T2 construct: range 5-765; also called GRIP1 (5-765); not shown: translation start and HA tag encoded by pSG5.HA
In words: GST pull-down on glutathione agarose beads, labeled in vitro translated fragment, SDS-PAGE. The method, then:
(§1) The binding of GRIP1c to CARM1 observed in the yeast two-hybrid system was confirmed in vitro, by incubating glutathione S-transferase (GST) fusion proteins attached to glutathione agarose beads with labeled proteins or protein fragments translated in vitro. […] Conversely, GST-GRIP1c bound CARM1 and the VLD to AAA mutant of CARM1 (FIG. 3B). GST-CARM1 not only bound GRIP1 but also the other two members of the p160 coactivator family, SRC-1a and ACTR (FIG. 3A). […] GST fusion proteins of CARM1 or the indicated GRIP1 fragments produced in E. coli strain BL21 (Stratagene), were bound to glutathione-agarose beads and incubated with labeled full length CARM1 or p160 coactivators or GRIP1 fragments translated in vitro from vector pSG5.HA-CARM1, pSG5.HA-GRIP1, pSG5.HA-SRC-1a (Chen, D. et al. 1999), or pCMX.ACTR (Chen et al. 1997); bound labeled proteins were eluted and analyzed by SDS polyacrylamide gel electrophoresis as described previously (Hong et al. 1996). A mutant form of CARM1 with the triple amino acid substitution (VLD changed to AAA) shown in FIG. 1 still retains the ability to bind to the C-terminal fragment of GRIP1.

Test [2] concerns the target T1, CARM1 fused to Gal4AD (pGAD10.CARM1). Briefly: yeast two-hybrid, β-galactosidase activity. The method, then:
(§2) Sub-fragments of the GRIP1 C-terminal domain (GRIP lc), fused with the Gal4 DBD, were tested in the yeast two-hybrid system as described previously (Ding, X. F. et al. (1998) Mol. Endocrinol. 12:302) for binding to CARM1 or to α-actinin, fused to Gal4AD. β-galactosidase (β-gal) activity indicates interaction between the two hybrid proteins.

The target is the same in test [3]. In words: yeast two-hybrid, β-galactosidase activity (figure legend). The method, then:
as §2

Test [4] deals with B1. In words: GST pull-down on glutathione agarose beads, labeled in vitro translated fragment, SDS-PAGE. As to the method: as §1

T2 sequence (Q61026 5-765): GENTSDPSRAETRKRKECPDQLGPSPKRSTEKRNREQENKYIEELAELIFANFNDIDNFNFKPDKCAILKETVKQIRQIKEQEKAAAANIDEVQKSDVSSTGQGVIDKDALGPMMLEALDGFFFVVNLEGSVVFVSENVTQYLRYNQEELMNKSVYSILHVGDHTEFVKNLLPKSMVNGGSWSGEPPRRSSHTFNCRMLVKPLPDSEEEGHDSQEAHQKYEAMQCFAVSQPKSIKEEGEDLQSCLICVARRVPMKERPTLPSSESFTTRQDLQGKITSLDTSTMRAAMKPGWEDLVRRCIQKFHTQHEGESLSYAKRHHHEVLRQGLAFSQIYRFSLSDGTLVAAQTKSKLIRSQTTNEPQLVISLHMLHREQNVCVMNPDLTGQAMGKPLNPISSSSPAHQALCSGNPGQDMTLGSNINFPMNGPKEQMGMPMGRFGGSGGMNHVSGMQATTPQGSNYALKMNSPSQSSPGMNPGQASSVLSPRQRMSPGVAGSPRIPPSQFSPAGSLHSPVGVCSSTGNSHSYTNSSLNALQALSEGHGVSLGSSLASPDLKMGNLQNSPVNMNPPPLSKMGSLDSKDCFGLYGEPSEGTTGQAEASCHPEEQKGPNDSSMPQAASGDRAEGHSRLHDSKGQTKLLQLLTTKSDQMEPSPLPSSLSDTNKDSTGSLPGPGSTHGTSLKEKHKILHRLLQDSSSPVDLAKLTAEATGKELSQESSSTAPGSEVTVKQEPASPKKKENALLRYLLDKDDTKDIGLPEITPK

Regarding B1, the binding result in test [1] is “no binding”. Take B2: the binding result in test [2] is “no binding”. As to B3, the binding result in test [2] is on record as “no binding”. On the same count and under the same terms, with B4 the entry was “binds”. B5: the binding result in test [3] is reported as “binds”. As for B6, in test [4], the binding result was “no binding”. Turning to B7, the binding result in test [2] is “no binding”. For the molecule B8, in test [2], the binding result is given as “binds”.
